US20050287608A1 (UNIVERSITY OF MEDICINE AND DENTISTRY, published 2005)

Molecular target: Ub-Pro-βgal (proteolytic test substrate, ubiquitinated in yeast cells) (UniProt P00722 1-1024 = β-galactosidase, ubiquitinated in the cells (multi-Ub chains; sites not stated))
Test: cell-based or functional assay

Chain of Ub-Pro-βgal (proteolytic test substrate, ubiquitinated in yeast cells) (P00722 whole entry): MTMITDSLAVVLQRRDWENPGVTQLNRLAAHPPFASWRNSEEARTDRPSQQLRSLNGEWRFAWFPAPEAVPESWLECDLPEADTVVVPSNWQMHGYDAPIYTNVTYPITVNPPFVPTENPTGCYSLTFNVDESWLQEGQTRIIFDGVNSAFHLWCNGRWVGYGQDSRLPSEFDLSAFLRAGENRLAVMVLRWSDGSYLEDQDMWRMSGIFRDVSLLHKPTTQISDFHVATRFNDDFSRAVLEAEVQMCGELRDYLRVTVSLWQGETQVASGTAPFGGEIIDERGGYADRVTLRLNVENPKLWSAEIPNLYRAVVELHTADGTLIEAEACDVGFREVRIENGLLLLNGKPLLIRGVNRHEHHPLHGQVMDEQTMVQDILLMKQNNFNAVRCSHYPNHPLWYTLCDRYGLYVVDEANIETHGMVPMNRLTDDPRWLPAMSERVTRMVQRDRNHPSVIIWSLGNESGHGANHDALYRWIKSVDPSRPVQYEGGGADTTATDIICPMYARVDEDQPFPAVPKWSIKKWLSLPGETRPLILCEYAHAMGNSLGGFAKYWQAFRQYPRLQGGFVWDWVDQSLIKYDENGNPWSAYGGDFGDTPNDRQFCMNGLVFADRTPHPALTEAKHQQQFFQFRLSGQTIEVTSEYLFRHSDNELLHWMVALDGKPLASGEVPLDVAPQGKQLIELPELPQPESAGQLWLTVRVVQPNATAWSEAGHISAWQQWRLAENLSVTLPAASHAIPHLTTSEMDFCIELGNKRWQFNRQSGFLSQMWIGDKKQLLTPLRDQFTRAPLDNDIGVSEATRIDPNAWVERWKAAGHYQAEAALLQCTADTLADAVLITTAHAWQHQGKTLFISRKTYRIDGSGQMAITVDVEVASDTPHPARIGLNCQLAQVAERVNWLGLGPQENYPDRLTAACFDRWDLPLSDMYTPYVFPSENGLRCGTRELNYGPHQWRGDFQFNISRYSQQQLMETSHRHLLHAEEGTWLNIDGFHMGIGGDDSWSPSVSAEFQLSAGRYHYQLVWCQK

B1: Flag-Rad23 (yeast Rad23 with an amino-terminal Flag epitope) (other, yeast (Saccharomyces cerevisiae), UniProt P32628 1-398, looked up, not shown: small tags and cut ends)
chain: MVSLTFKNFKKEKVPLDLEPSNTILETKTKLAQSISCEESQIKLIYSGKVLQDSKTVSECGLKDGDQVVFMVSQKKSTKTKVTEPPIAPESATTPGRENSTEASPSTDASAAPAATAPEGSQPQEEQTATTERTESASTPGFVVGTERNETIERIMEMGYQREEVERALRAAFNNPDRAVEYLLMGIPENLRQPEPQQQTAAAAEQPSTAATTAEQPAEDDLFAQAAQGGNASSGALGTTGGATDAAQGGPPGSIGLTVEDLLSLRQVVSGNPEALAPLLENISARYPQLREHIMANPEVFVSMLLEAVGDNMQDVMEGADDMVEGEDIEVTGEAAAAGLGQGEGEGSFQVDYTPEDDQAISRLCELGFERDLVIQVYFACDKNEEAAANILFSDHAD
B1 was tested, and the “t1/2 of Ub-Pro-βgal by pulse-chase on overexpression of Flag-Rad23 in yeast” value was greater than 100 min.

B2: Flag-rad23^uba1uba2 (yeast Rad23 with mutations in both UBA domains, amino-terminal Flag epitope) (other, yeast (Saccharomyces cerevisiae), UniProt P32628 1-398, looked up, not shown: small tags and cut ends)
chain: MVSLTFKNFKKEKVPLDLEPSNTILETKTKLAQSISCEESQIKLIYSGKVLQDSKTVSECGLKDGDQVVFMVSQKKSTKTKVTEPPIAPESATTPGRENSTEASPSTDASAAPAATAPEGSQPQEEQTATTERTESASTPGFVVGTERNETIERIMEMGYQREEVERALRAAFNNPDRAVEYALMGIPENLRQPEPQQQTAAAAEQPSTAATTAEQPAEDDLFAQAAQGGNASSGALGTTGGATDAAQGGPPGSIGLTVEDLLSLRQVVSGNPEALAPLLENISARYPQLREHIMANPEVFVSMLLEAVGDNMQDVMEGADDMVEGEDIEVTGEAAAAGLGQGEGEGSFQVDYTPEDDQAISRLCELGFERDLVIQVYFACDKNEEAAANIAFSDHAD
For B2, the “t1/2 of Ub-Pro-βgal by pulse-chase on expression of Flag-rad23^uba1uba2 in yeast” value was roughly 10 min.
